Source: patent US20070105162A1, “Monovalent avidin and streptavidin compositions” (Massachusetts Institute of Technology, priority 2005, published 2007)

Target: biotinylated AP-neuroligin-1 on rat hippocampal neurons (mouse) (UniProt Q99K10)
Assay: cell-based or functional assay

Chain of monovalent streptavidin A1D3 conjugated to Alexa Fluor 568 (designed binder) (chain): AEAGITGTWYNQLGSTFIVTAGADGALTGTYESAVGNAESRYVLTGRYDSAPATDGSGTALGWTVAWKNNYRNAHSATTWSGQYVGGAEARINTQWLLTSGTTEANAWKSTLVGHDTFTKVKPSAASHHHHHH
Chain of monovalent streptavidin A1D3 conjugated to Alexa Fluor 568 (designed binder) (chain): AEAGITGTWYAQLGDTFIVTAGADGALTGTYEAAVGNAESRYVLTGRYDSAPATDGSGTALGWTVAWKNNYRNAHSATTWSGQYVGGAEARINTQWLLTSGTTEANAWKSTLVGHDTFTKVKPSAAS

clusters/µm of labeled AP-neuroligin-1 after a two hour incubation | Substance
0.266 clusters/µm | Alexa Fluor 568-conjugated wild-type streptavidin (Molecular Probes) (from UniProt P22629 37-163)
0.087 clusters/µm | monovalent streptavidin A1D3 conjugated to Alexa Fluor 568 (designed binder)
